The data set can be described thus: soluble on expression in E. coli; label from the status in PepcDB or PDB records.
Take “QDLTVKMTDLQTGKPVGTIELSQNKYGVGFIPELADLTPGMHGFHIHQNGSCASSEKDGKVVLGGAAGGHYDPEHTNKHGFPWTDDNHKGDLPALFVSANGLATNPVLAPRLTLKELKGHAIMIHAGGDNHSDMPKALGGGGARVACGVIQ”: the “soluble on expression in E. coli” value is “soluble”. With “SNAMDMVTVTAKTVEEAVTKALIELQTTSDKLTYEIVEKGSAGFLGIGSKPAIIRAKRKETLQDKAIEFLEQVFDAMNMAVDISVEYNETEKEMNVNLKGDDMGILIGKRGQTLDSLQYLVSLVVNKSSSDYIRVKLDTENYRERRKETLETLAKNIAYKVKRTKRSVSLEPMNPYERRIIHAALQNDKYVVTRSDGEEPFRHVIISLKRENRRDRNDRSDRNEK” the entry was “soluble”; with “MAQTTINEQTLVNEQRLLAYDCFQNTNKVGLLSALEYLDFVNHLVKSNQIKYLLVPSASQTVYQHVFFDHFRFLSFDNNLLSGFGLAIRLHKEAETVFMLVEKTKQTETEIKKLLEAVKQFSGLKLVVLLVNSPFENKRTKLSYEIVKIIKKHGYQYKRYCRKNFEKKFFNTWNHQKRKQKTKNNLFFVELNSQFAFGTSMANSNSFDLSFTSFKERFNTENNLDIDVHFNVPHKYLLKNLESIKHHLQIDNNTIWKQAFINFAGQLLLYFENLQVFAQEASTLQVNAIVIKQDAYFIVEVMKGYNYDNNCICLLEANKDQNVGLTTASTNTLIGDIKQYEPCFFIEK”, “soluble”; with “MESGSWRPPFSTGKIVGNYGLLKLYLEVAREKGRRDLVDKALISEDDVDMLRRLSASPGATAEDFVNALEERFVERVDPEVASEALARAGINVDGDTARRMIARILAGWLVEMGEEMKLYRLRRSWED”, “soluble”. Then “MPEISRDEVAHLAKLSRLALTDEELDRFAEQIDGIIGNVSAVQQVAAEGVEPMSHPHSIKTTMREDVVEQILTPEQALDQAPAVDQQRFVVPQILGEQD”, with “not soluble”; and “MGSDKIHHHHHHMRSIKNITLGLATVGVMSLSGCAGDYLDTIPSTSVSETTINTSLDNLYIALNGIHKEMVSQESGYQCLGGEPGFMMSRDAEADDMNWQTNTWMKAAYLGWQCNMNETNGYNYKFWQIYYQWILNANKILAGLEEVEITSQELFDQIKGEALCIRAWAHFNLVQLYAKRYEAGKDNTQDGIPYREKAVAEEQARNSVEDVYAKINNDLDEACILLSGIKVNDVNHYSEMVAWGLKARVALAMQDYNNAAVYAGKSVSLAEAGGHRLMTGSQLNCGFANITTDTKEAMYAAMTPDDKTVYFYSYYAYMSWNFNSSAIRQGVKCINVDAYETMSETDLRRAWWDPTGEASVPSSSYAKNAYQNRKFTARSTADAVGDVAFMRLAEMYLTQAEALARAGKDSEAQAVFTKFQITRDPSYVSKGNIGDALAEEIMNSRRVELWGEGFRFL”, with “not soluble”.

As to “MKTIRTEEAVGLPLSHDITRIDYGKTKEVCFKKGHIVVQEDIPILLSLGKKHLFVSLDPAEIHEEEAATFLYNLLTDDSCQPSEVHEGKIVAKASTRGLLKVNREKLIALNEIEGLALSTKVTNIEVQKDEKVAAFRVIPLTISKSQLEKARQLSTSEPLISVKPFKKIRVGIVTTGSEVYTGLVEDAFYPVLKAKFSAYPLVTIVKQEIVDDQPQKITVAIKKMLAQGVDLIVCTGGMSVDPDDLTPLAIKQTGAEIVTHGTPVLPGSMFLLAYKGEQTIIGLPGGVLFSEKTVFDLLLPRLMAKEVIKKSEIIDLSYGGYL”, the “soluble on expression in E. coli” value is given as “not soluble”. As to “MKVPRLIVAGTESGAGKTTITISIILKLLANQMKVKPYKIGPDYIDPQFHRLASGVPSENLDLWMMNDDQIRYLLIEGSREFDISVIEGVMGLFDGAGSDFTGSTYDLARRTGTPIVLVIDGYGISATAAAIVSGIKAYAGELLRGVIVTRVSGESHYRLIRDAVEEKTGVPVLGYMIRNEKAVLESRHLGLVQAYEIDEIREIFGAIDSSTVIDMHQIIDIARSADKLETLYSPEIERLGTFKVSVAMDSAFDFYYEENLRMLKRMGASIRYFSPMGNEVPDADSDLIYLGGGYPEVFAGKLQSATDTIEAIRHAASIGTGVYAECGGYMFLCRSLESTDGHIYGGVGIIPASVYMDASLVIGYREISAKRDTSILRAGETARGHEFHKSRIRFDGPYDHPFVLKSRSSSFEDGFSSGSVTATYAHIHFLSNPRVAENLLIALEHHHHHH”, the “soluble on expression in E. coli” value is on record as “not soluble”. Then “MDNFENLSTKDSFPEHFRRAVRGIFPDSQLPDEFFLVVYRDGKFERSLQPTATFAGRKAPVVIIPQWKEKHTLEIGNYRKVVDEEFYQIGGKMIYAGRDIFIEDVPGLYRNIDMVFLDGEKECIYRDGFLMMEEKILKIEEPVDVVDGIVITRHRMGSKEIDDTILFRWNNFVLTASGFLVDIKGKWSWKVSNAPVEFSFQGDIFYVLDVCGFLRSYNLKTRQLLWEKKFEGAWGLDSSKDRVFLGAGDEVLVLNAQDGETIERMEADDFAVWKGRLLVYKDGKVDGEDMEGFFIRNFGMPLFVSGKRVVMFGTEKKEFEEVEKVRLFDWGTVIKAGDELWLIRRD”, with “not soluble”. “MGSDKIHHHHHHMCRLLAYLGSPVSLEYLLYKPEHSLIVQSYQPREMTSGVVNADGFGVGWYHSQKDTEPFTYKNTLPIWNDINLPSLSRYVESKCILAYVRSATAGQALDFANCQPFHYKQSLFIHNGYIENFRKTLHRKLRSTLTPDFYEHINGSTDSEHIFALLLSQIQSNKHRSVESVLRNTLLMLWEMAKRHQVNASANVVFSDGHRLIASRFASSSSPPSLYWLKDDLTFPNSVIIASEPLFAGNWTACPENSIISVGEDCDIKIESI”: the “soluble on expression in E. coli” value was “not soluble”.

As for “MVATAKYGTPVIDGEIDEIWNTTEEIETKAVAMGSLDKNATAKVRVLWDENYLYVLAIVKDPVLNKDNSNPWEQDSVEIFIDENNHKTGYYEDDDAQFRVNYMNEQTFGTGGSPARFKTAVKLIEGGYIVEAAIKWKTIKPTPNTVIGFNIQVNDANEKGQRVGIISWSDPTNNSWRDPSKFGNLRLIK”, the “soluble on expression in E. coli” value is “soluble”. For “MEQQLKDIISACDLAIQNEDFDTLMNYYSEDAVLVVKPGMIARGKEEIKKAFITIANYFNHHIVPTQGKMILLEAGDTVLVLSQTLLDSDKKDSEYAMERRATYVFKKNAQGEWLCVIDNSYGTDLIGVMAGDPLEHHHHHH”, the “soluble on expression in E. coli” value was “soluble”. For “MDEVDVALIGAGIMSATLGAMLRTLEPGWTQVMFERLDAPAQESSSPWNNAGTGHSALCELNYTPEVKGRVQIDKALGVNEKFQISRQFWSYQVNEGVLPSPREWINPVPHVSFGRGEDQVAYLKKRYEALAAHPLFPNMQYTDDRAKFAEMLPLMADGRSEFEKVAISWTDAGTDINYGSQTRQFLKAAEKNGTEIRYGHEVKDIKRDGAKWRVTVKNVHTGDTQVIRANFVFVGAGGMALPLLQKTGLEHHHHHH”, the “soluble on expression in E. coli” value is listed as “soluble”. With “SNAMPVRVIVDSSACLPTHVAEDLDITVINLHVMNNGEERSTSGLSSLELAASYARQLERGGDDGVLALHISKELSSTWSAAVTAAAVFDDDSVRVVDTSSLGMAVGAAAMAAARMAKDGASLQECYDIAVDTLKRSETWIYLHRIDEIWKSGRISTATAMVSTALATRPIMRFNGGRMEIAAKTRTQSKAFAKLVELAQIRADGEPVFIAIGQNEAREAAKQLEELLRNALPEGSSFMSVDIDPTLAVHSGPGAVSVSAVFANQAPELSTGKAGAK” the entry was “soluble”; with “MSSANIPATQSALIFEKYGGPLEVRQVSVPQPQENELLVKIEYSGICHSDLHTWEGDFEYASICPLIGGHEGAGTVVTIGSKVKGWNIGDRAGIKLINANCLNCEYCKTGHEPLCDHIQNYGIDRHGTFQEYLTIRDIDAIKVSNDTNLAAAAPVLCGGVTAYKSLKATNVKPGQIVVLTGAGGGLGSFGIQYAKAMGMRVVAVDHISKEDHCRNLGAEWFVDAFDTPDIVAHIRKLTNGGAHGVVSFAAAKKPMEYALEYVRKRGTVVFVGLPKDGTIPLDTLSLICNEITVKGSIVGSRMDVDEAIDFITRGIVHVPIELVKLEDVPSVYQRMKDGKVTSRVVVDFSMR”, “not soluble”; with “MTKTMIRLASEQDAEKLQQLMHEAFTPLRELGIDWPSVNANLDAVKENIDKNTTFVMTIDDEIISTITVRYPWGSVKSISGYPFVWWFATNPEYEGKGYGSQLLTYVEEAFLRDTLKSAAVTLGTSARLHPWLLKIYEKRGYEIYSEHENDDGDLGVIMRKVLIPERFDETILGQPPF”, “not soluble”.

On to “MGSDKIHHHHHHMIDWLYSYPPLYPGILLKRYKRFFADVQLASGEVVTAHCPNTGPMTGVSTLGSVVQLSKSANPKRKLAYTLELIQVHDNEPTWVGVNTALPNQIVKLALAKYLFPELGSYNHIKSEVVYGVDKKSRVDFFLTGSDTERPIYLEVKNTTWAKGTLALFPDTETTRGQKHLRELMTLLPQTRSVMLYFINRGDCTEFAPGDSTDPIYGKLLREAIALGLEVLPCRFDVTPEGIRYLGLAKLVI”, for which the “soluble on expression in E. coli” value is “not soluble”. With “MGSDKIHHHHHHMALYPLPALVEQLMTQPIIFIGGKGGVGKTTTAAALASYYASQGKKTLIVSTDPAHSLGDVLKVPLKNQKTVVTPYLDAIELNPDLIVDEHFAQVERTITSYANPDMMPKIREHLRLSKSAPGAQEAAMLESMCQHLVAAADAGYEHIIFDTAPTGHTLRLLVLPEMMGAWTDGLLAQQRRQAKLRSVANHLGSHEQANNNKNDLANPFVERKSDRWEQAVSVLEKRKQLFRQAGLLLHDRRKTAIVLVMTADVLPLAETKRAIEQLEESNLIPAAIVINQLITQTQSDAFWHHRAERQQQLMQDIEKNFTNYPLYPIYLQQTDVRGTDALSALVSPVS” the entry was “not soluble”; with “MGSDKIHHHHHHVTILSPKAVPAPAASDAYGFGDRLTADFPSQINVDVTEVCNLACVHCPHPQFKKSVHYAGRMLDPALNDKMVEEVRDHGQGRVGYIRYTAAGEPMAHPAIFPMLAKAVARSGTTVSLTTNGMLLDEGRRARLLETGIHLIDISIDAFLPETYARVRVGGDLERVRGGVLRLMEGAARRVDPPKIVVSFVEQPFNQGETADFERFWKENGAAYVVIRRLHSCAGAAQDLAATLRVEQGETRRPCLYPWERIVLNPSGQLSFCPADWAHGAAIAEYRDTTIREVWQGPFYRALREAHLTNSYANHGFCGQCPDWASTRWPKQGRSYADMVQDFKETE”, “not soluble”. In the case of “MADTSPRESKLNKQDQDLHLEIDETGLACKSEVKKRWLGARGTAGLYGNGKYYYEVTITSKGLCRVGWATLGGSLNIGKGLDSFGYGGTGMKSTHKKFDDYGLPFTLNDVIGCYLDLDSRTIWWSKNGEQFPAAFSIDVKYKNSNTCLFPAVLCQNSSLSVNFGSQPFKFPPGNQFTAVSDAPNENVNWWSYEEQNSFEHVVVKLPFAVEEDVHNEFRMHTKLMLTELKRTQCKQDKDGSIRRTLQPISKTICAFLNTDGGRLFLGVNDDKVIKGISMSKNMIYHFFGSLRHMCENFKPCSPLCRIKVSILEVIPVGVIKVKLRKADLLKEEAHDFPKLACHSVGGSFCDCFLEINKAPTKQYLLIIQVSPPNPNSRTTIFQNEEGLVYRRRMASNKCVYLDDLRRMMNEKNQVFVDLPDEARAEIDSFSKFD”, the “soluble on expression in E. coli” value is reported as “not soluble”. Then “MIRRAKPLLGTLIEIAVESVVEASSQSALDEPAIQAAITAAFSRITQIGRLLSFHQQDSELNLLNRQPGQWITLSQDSLRVFKLAKWFGKASDNLFNCTIGGEMMSRGALPCYLGMPLLLQGDWQDIEIRGNQARLARPLIVTFDGIAKGYAVDMAVRELRRAGVSGGWVNAGGDLKVFGSASLDVLCRGSNGLSQKVTVRNMALASSRVSLQLSLGCPALLLPTGNVDMMSFDASNERVVSVQAPFAWRADALTKVAGYLSAEAAKDKIQQLGGQLVC”, with “not soluble”.
